72 sequences from the supplement of paper PMC10567573 can be followed below.

The series is described as follows: protein stability index of a GFP-peptide fusion (GPS, HEK-293T) (PSI 1-6); higher = more stable.
Setting [1] is: treatment: DMSO, c terminus: a fixed tail appended.
The mark [2] stands for this setting: treatment: MLN4924 1 uM, 8 h, c terminus: a fixed tail appended.

± gives the standard deviation.
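Note: 24-mer peptide tiles fused after GFP, lentivirally expressed, FACS-sorted into six equal bins by GFP/DsRed ratio, decoded by Illumina sequencing, PSI is the read-weighted mean bin number.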

For the sequence LNLTRKLAQQLCTALLFLATPELS [DYRK1B], the protein stability index reads like this: under setting [1], 2.9 ± 0.51; under setting [2], 3.21 ± 0.47.

On to LPDSPLRFDGLPAVLGFPGFSSGR [TRIM15], for which the protein stability index runs as follows: under setting [1], 2.87 ± 0.39; under setting [2], 3.18 ± 0.41.

LPNYNWNSFGLRFGKREAAPGNHG [KISS1]: the protein stability index reads like this: under setting [1], 3.14 ± 0.36; under setting [2], 3.36 ± 0.42.

LPQDEGGGGYSSVRYSDCCERVVI [KCNA4]: the protein stability index is, setting by setting: under setting [1], 2.41 ± 0.3; under setting [2], 2.77 ± 0.53.

On to LPRKESPSVRSSKDGKLLAATLLL [TNFSF13B], for which the protein stability index stood at 2.26 ± 0.21 under setting [1] and 2.18 ± 0.22 under setting [2].

Take LQEVPTGLDSISHDSANCELPLLT [ETS2]: the protein stability index under setting [1] came out at 4.71 ± 0.12 and the protein stability index under setting [2] was found to be 4.92 ± 0.42.

With LQLGEGVEFDVLPAFDALGQLTGG [OAS1], the protein stability index turned out to be 2.37 ± 0.35 under setting [1] and 2.72 ± 0.51 under setting [2].

On to LQLLHECSPSQMDLLCAQLQLPQL [FANCE], for which the protein stability index under setting [1] is 2.33 ± 0.27 and the protein stability index under setting [2] is 2.49 ± 0.11.

Take LRATVERMGLMKANHVFFLLYLLH [FADS1]: the protein stability index was found to be 2.35 ± 0.37 under setting [1] and 2 ± 0.18 under setting [2].

Take LRKKILKIRHGWEDVTKINKTEIC [STEAP1]: the protein stability index was 2.29 ± 0.47 under setting [1] and 2.56 ± 0.48 under setting [2].

For the sequence LRPSYTGLSSSSARFLSRSIPSLQ [CDC14A], the protein stability index was 3.04 ± 0.38 under setting [1] and 2.85 ± 0.29 under setting [2].

The sequence LRRTMQELEIELQSQLSMKAGLEN [KRT15] displayed a protein stability index under setting [1] of 2.86 ± 0.22 and a protein stability index under setting [2] of 3.13 ± 0.38.

On to LRTRGRTRGWVQTLARMSRRTRGP [C6orf223], for which the protein stability index was 3.6 ± 0.23 under setting [1] and 3.97 ± 0.27 under setting [2].

The sequence LRVEQKDFPAHRIVLAACSDYFCA [KLHL12] displayed a protein stability index under setting [1] of 2 ± 0.44 and a protein stability index under setting [2] of 2.07 ± 0.29.

With LRVMETKPDKAVSIIECDMNVDFD [UFD1], the protein stability index runs as follows: under setting [1], 3.57 ± 0.43; under setting [2], 3.53 ± 0.28.

LSEGSSNEDEDLGPCEGPSKEDKD [SPANXN3]: the protein stability index under setting [1] came to 5.71 ± 0.31 and the protein stability index under setting [2] turned out to be 5.37 ± 0.41.

On to LSEVLAQPQGALAPPNCESDSKTG [DNAAF3], for which the protein stability index was 5.37 ± 0.14 under setting [1] and 5.52 ± 0.096 under setting [2].

Turning to LSHLLGDAGSPYLIGLISDRLRRN [SPNS1], the protein stability index came to 2.18 ± 0.36 under setting [1] and 2.16 ± 0.39 under setting [2].

On to LSIYVGCDKYPHESQLPEEWENNR [CPXM2], for which the protein stability index reads like this: under setting [1], 2.98 ± 0.13; under setting [2], 3.25 ± 0.4.

Sequence LSLLGAVGLAAVNSMPVDNRNHNE [CHGB] registered a protein stability index under setting [1] of 3.35 ± 0.2 and a protein stability index under setting [2] of 3.54 ± 0.5.

As for LSLTSSASRLLTTALTSFCAKYTY [FANCE], the protein stability index is, setting by setting: under setting [1], 2.72 ± 0.48; under setting [2], 2.81 ± 0.67.

With LSPMTASSFLSFAELFSYVLQDRA [FEM1A], the protein stability index turned out to be 2.47 ± 0.39 under setting [1] and 2.26 ± 0.13 under setting [2].

As to LSRLQRVKFCLLGALLAPIRVLLA [LPCAT4], the protein stability index under setting [1] stood at 3.67 ± 0.42 and the protein stability index under setting [2] came out at 3.58 ± 0.14.

With LSSEVLVGDLMSPFDQSGLGAEES [ATF4], the protein stability index by setting is: under setting [1], 5 ± 0.48; under setting [2], 4.84 ± 0.18.

For LSTAASLGPSGLQNHGQHLILSRE [LCOR], the protein stability index runs as follows: under setting [1], 3.99 ± 0.38; under setting [2], 3.96 ± 0.16.

Consider LSTADGKAFADPEVLRRLTSSVSC [ANKRD17], for which the protein stability index runs as follows: under setting [1], 3.55 ± 0.17; under setting [2], 3.69 ± 0.29.

On to LTKAATSGVGIDGEVLSYLELAQF [RHOBTB1], for which the protein stability index is, setting by setting: under setting [1], 2.44 ± 0.18; under setting [2], 2.47 ± 0.43.

Consider LVEHYKKAPIFTSEHGEKLYLVRA [NCK2], for which the protein stability index came out at 2.28 ± 0.21 under setting [1] and 2.42 ± 0.24 under setting [2].

Regarding LVNMGISVVSYTLKDIHDDQDYLH [FLOT1], the protein stability index runs as follows: under setting [1], 2.11 ± 0.24; under setting [2], 2.22 ± 0.31.

As to LVVFTASMEIYGSAVADKLDNSRS [CTDNEP1], the protein stability index reads like this: under setting [1], 2.92 ± 0.74; under setting [2], 2.26 ± 0.37.

In the case of LWCANILGYAVSTFAMVKGYFFPT [DHCR7], the protein stability index runs as follows: under setting [1], 4.05 ± 0.23; under setting [2], 3.83 ± 0.12.

On to LWFANAHLLSWFSPTIIFDNWIPL [DHCR7], for which the protein stability index was determined as 2.92 ± 0.33 under setting [1] and 2.93 ± 0.16 under setting [2].

Take LWIKFFAAGELESMGFSARYNFTP [NETO1]: the protein stability index worked out at 2.63 ± 0.85 under setting [1] and 2.58 ± 0.89 under setting [2].

On to LWLRPEVHTKEQILELLVLEQFLA [ZNF396], for which the protein stability index was determined as 2.54 ± 0.5 under setting [1] and 2.73 ± 0.49 under setting [2].

For LYFKDKIFNVAIPRFHMACPTFRV [FBXO3], the protein stability index by setting is: under setting [1], 2.98 ± 0.92; under setting [2], 2.65 ± 0.68.

With LYGALNPQYEFKEAAGSFTSSLAQ [IRX6], the protein stability index under setting [1] was 2.64 ± 0.17 and the protein stability index under setting [2] stood at 2.55 ± 0.27.

LYPDLSCPEGLEELLSAPPPDLGA [SPSB2] gave a protein stability index under setting [1] of 4.27 ± 0.14 and a protein stability index under setting [2] of 4.46 ± 0.12.

Regarding MAGTGLLALRTLPGPSWVRGSGPS [ALKBH7], the protein stability index under setting [1] was determined as 2.68 ± 0.19 and the protein stability index under setting [2] turned out to be 2.88 ± 0.11.

Take MAKTLVFSKVKTSLGLDHCHSFIS [ACSBG2]: the protein stability index is 2.18 ± 0.58 under setting [1] and 1.82 ± 0.52 under setting [2].

For MALSNHYRSEDLLDVDTAAGGFQQ [FBXO3], the protein stability index by setting is: under setting [1], 4.03 ± 0.18; under setting [2], 4.04 ± 0.13.

Consider MCLSPDRKMEVEELSPLALGRFSL [CDC25B], for which the protein stability index reads like this: under setting [1], 2.57 ± 0.19; under setting [2], 2.71 ± 0.24.

As for MCYGYGCGCGSFCRLGYGCGYEGC [KRTAP19-2], the protein stability index stood at 2.35 ± 0.23 under setting [1] and 2.43 ± 0.54 under setting [2].

Turning to MDDERYFNEMSAQGLRPRTVSSPI [CCDC6], the protein stability index runs as follows: under setting [1], 4.28 ± 0.29; under setting [2], 4.16 ± 0.14.

Consider MDSRTVFGAWRCLLDATVAGGQTR [FCHSD1], for which the protein stability index stood at 1.92 ± 0.4 under setting [1] and 2.01 ± 0.33 under setting [2].

In turn, MECPEGQLPISSENDSTPTVSTSE [TAF7L] displayed a protein stability index under setting [1] of 5.46 ± 0.12 and a protein stability index under setting [2] of 5.59 ± 0.25.

For METNGSTEGSRSRSRSLDIQPSSE [SPAG8], the protein stability index by setting is: under setting [1], 5.54 ± 0.33; under setting [2], 5.35 ± 0.064.

In the case of MHLNAEGMLSYCDRYSEGIKHVLQ [CRYL1], the protein stability index worked out at 2.4 ± 0.29 under setting [1] and 2.32 ± 0.42 under setting [2].

Take MISAAQLLDELMGRDRNLAPDEKR [LUC7L3]: the protein stability index amounted to 3.87 ± 0.19 under setting [1] and 4.11 ± 0.21 under setting [2].

Consider MITVPIGLYFTTKSYIFEGALGMS [VMA21], for which the protein stability index turned out to be 2.49 ± 0.7 under setting [1] and 2.89 ± 0.43 under setting [2].

For MLKEEHQIILENQKNFGLYVQEKR [RAD54B], the protein stability index came out at 2.99 ± 0.24 under setting [1] and 3.62 ± 0.29 under setting [2].

Turning to MLLRKFAESKGTGREKPGPLDFEA [FCHO1], the protein stability index turned out to be 2.84 ± 0.034 under setting [1] and 2.86 ± 0.5 under setting [2].

MMEEIDRFQDPAAASISDGDCDAR [FAM219A]: the protein stability index came to 5.38 ± 0.16 under setting [1] and 5.42 ± 0.11 under setting [2].

In the case of MNALLEQKEQQERLREAAALGDIR [ANKRD40], the protein stability index is, setting by setting: under setting [1], 4.66 ± 0.24; under setting [2], 4.76 ± 0.18.

MPEYRGQGIGSKIIKKVAEVALDK [SAT2]: the protein stability index under setting [1] amounted to 3.65 ± 0.35 and the protein stability index under setting [2] came to 4.05 ± 0.27.

Regarding MQPESGANGTVIAEFILLGLLEAP [OR3A1], the protein stability index runs as follows: under setting [1], 2.18 ± 0.24; under setting [2], 2.33 ± 0.42.

For MSDLLSVFLHLLLLFKLVAPVTFR [CPN1], the protein stability index under setting [1] worked out at 3.09 ± 0.26 and the protein stability index under setting [2] was 3.33 ± 0.17.

On to MSFLSRQQPPPPRRAGAACTLRQK [WEE1], for which the protein stability index is, setting by setting: under setting [1], 3.94 ± 0.2; under setting [2], 3.88 ± 0.24.

As for MSMNNSKQLVSPAAALLSNTTCQT [PTGFR], the protein stability index by setting is: under setting [1], 3.79 ± 0.21; under setting [2], 3.99 ± 0.12.

Consider MSSIICEGDTVSQELLDTVLVNLV [PDS5B], for which the protein stability index was found to be 2.24 ± 0.22 under setting [1] and 2.14 ± 0.53 under setting [2].

Take MTEWFMCAFSRTLPWSSVLRVWDM [TBC1D10A]: the protein stability index is 3.32 ± 0.42 under setting [1] and 2.84 ± 0.23 under setting [2].

With MTSNPITWGQIKKTTQEAEKLLER [CDK11A], the protein stability index reads like this: under setting [1], 4.55 ± 0.24; under setting [2], 4.31 ± 0.25.

As for MVFEVLGHHLLKWIIKSNYQGLPV [SRPK2], the protein stability index is 2.91 ± 0.33 under setting [1] and 3.12 ± 0.27 under setting [2].

Regarding MVFIAGILLNGVSGWIFFYVPSSE [P2RY14], the protein stability index reads like this: under setting [1], 2.94 ± 0.34; under setting [2], 2.84 ± 0.51.

MVWNQNGKSPSITFEYTLLQPPHE [ADAMTSL2] had a protein stability index under setting [1] of 2.23 ± 0.27 and a protein stability index under setting [2] of 2.64 ± 0.37.

NAININELFIEISRRIPSTDANLP [RAB22A]: the protein stability index by setting is: under setting [1], 2.35 ± 0.18; under setting [2], 2.18 ± 0.45.

Take NASTLRTINIKCHVHDPHGQVIWG [FBXO39]: the protein stability index by setting is: under setting [1], 2.17 ± 0.18; under setting [2], 2.21 ± 0.21.

Sequence NCPWPMSCPGSSYRTVVRPTYKVM [EMID1] registered a protein stability index under setting [1] of 2.62 ± 0.26 and a protein stability index under setting [2] of 2.47 ± 0.4.

NDPSQSEVMGEPHLMVEYKLGLL [POMP]: the protein stability index runs as follows: (treatment: DMSO, c terminus: native) 4.16 ± 0.22; (treatment: MLN4924 1 uM, 8 h, c terminus: native) 4.36 ± 0.21.

In the case of NERKVAQLAEENERLKQEIERLTR [DDIT3], the protein stability index came to 5.1 ± 0.37 under setting [1] and 5.18 ± 0.3 under setting [2].

Take NESHSIKAILKNISVLAFSVCFIF [SLC29A1]: the protein stability index came to 2.79 ± 0.61 under setting [1] and 2.54 ± 0.4 under setting [2].

For NEVIADINCKGRSKSNLGWTPLHL [OSBPL1A], the protein stability index by setting is: under setting [1], 2.48 ± 0.38; under setting [2], 2.76 ± 0.28.

Take NFKPRGYSECIVTVGGEERVSRKP [GAN]: the protein stability index turned out to be 4.14 ± 0.28 under setting [1] and 4.32 ± 0.39 under setting [2].
